Results reported in US5441884.

System: T1, Tn5401 TnpA transposase (Bacillus thuringiensis var. morrisoni EG2158)
T1 sequence: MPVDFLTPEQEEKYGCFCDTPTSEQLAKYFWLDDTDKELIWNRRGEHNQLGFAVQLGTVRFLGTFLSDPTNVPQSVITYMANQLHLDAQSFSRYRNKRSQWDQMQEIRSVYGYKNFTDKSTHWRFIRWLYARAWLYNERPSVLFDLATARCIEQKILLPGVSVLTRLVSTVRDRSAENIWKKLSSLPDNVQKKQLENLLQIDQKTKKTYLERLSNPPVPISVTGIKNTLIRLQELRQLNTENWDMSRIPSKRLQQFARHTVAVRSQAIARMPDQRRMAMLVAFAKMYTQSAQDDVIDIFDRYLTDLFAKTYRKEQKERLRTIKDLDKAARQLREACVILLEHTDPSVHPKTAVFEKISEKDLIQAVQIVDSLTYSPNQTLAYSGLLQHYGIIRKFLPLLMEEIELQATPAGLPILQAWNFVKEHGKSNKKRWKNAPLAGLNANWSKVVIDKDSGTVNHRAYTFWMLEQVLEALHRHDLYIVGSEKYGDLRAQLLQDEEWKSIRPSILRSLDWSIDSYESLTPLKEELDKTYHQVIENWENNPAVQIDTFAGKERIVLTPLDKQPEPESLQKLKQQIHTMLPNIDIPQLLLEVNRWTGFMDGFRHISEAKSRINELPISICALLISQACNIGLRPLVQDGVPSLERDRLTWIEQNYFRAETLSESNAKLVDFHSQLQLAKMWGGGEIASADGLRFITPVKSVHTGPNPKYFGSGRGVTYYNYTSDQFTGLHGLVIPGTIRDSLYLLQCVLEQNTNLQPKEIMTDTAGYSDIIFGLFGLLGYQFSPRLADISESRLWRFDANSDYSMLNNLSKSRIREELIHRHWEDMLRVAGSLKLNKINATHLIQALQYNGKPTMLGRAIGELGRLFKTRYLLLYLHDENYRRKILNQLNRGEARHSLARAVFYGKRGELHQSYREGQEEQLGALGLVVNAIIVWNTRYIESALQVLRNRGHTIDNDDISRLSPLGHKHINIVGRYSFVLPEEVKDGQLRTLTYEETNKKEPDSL
Experiment: cell_activity
Settings: pEG922 in plasmid-free B.t. EG7566; 10^-1 to 10^-2 in a plasmid-containing strain; functional transposition, binding not measured directly

## Tn5401 transposon with 53 bp terminal inverted repeats
  activity (transposition frequency): 0.0001
